# Measurements published in patent publication US20200385482A1 (Dana-Farber, published 2020).
# Positions count from the first letter of the chain named.
# B1: Ab-55 (antibody, V domains shown)
# VH: QVQLVQSGAEVKKPGASVKVSCKASGYTFTSYGISWVRQAPGQGLEWMGWTSPHNGLTAFAQILEGRVTMTTDTSTNTAYMELRNLTFDDTAVYFCAKVHPVFSYALDVWGQGTLVTVSS
# VL: NFMLTQPHSVSESPGKTVTISCTRSSGSIASNYVQWYQQRPGSSPTTVIYEDNQRPSGVPDRFSGSIDTSSNSASLTISGLKTKDEADYYCQSYDGITVIFGGGTKLTVL
# notes: also called huPD-L1 Ab # 55
# B2: Ab-30 (antibody, V domains shown)
# VH: QVQLVQSGGSVVRPGESLRLSCVASGFIFDNYDMSWVRQVPGKGLEWVSRVNWNGGSTTYADAVKGRFTISRDNTKNSLYLQMNNLRAEDTAVYYCVREFVGAYDLWGQGTTVTVSS
# VL: QSALTQPASVSGSPGQSITISCTGTSSDVGGYNYVSWYQQHPGKAPKLMIYDVSNRPSGVSNRFSGSKSGNTASLTISGLQAEDEADYYCSSYTSSTLPFGGGTKLTVL
# notes: also called huPD-L1 Ab # 30
# B3: Ab-31 (antibody, V domains shown)
# VH: QVQLVQSGAEVKKPGATVKVSCKVFGDTFRGLYIHWVRQAPGQGLEWMGGIIPIFGTANYAQKFQGRVTITTDESTSTAYMELSSLRSEDTAVYYCASGLRWGIWGWFDPWGQGTLVTVSS
# VL: EIVLTQSPATLSLSPGERATLSCRASQSIGNSLAWYQQKPGQAPRLLMYGASSRATGIPDRFSGSGAGTDFTLTISSLEPEDFATYYCQQHTIPTFSFGPGTKVEVK
# notes: also called huPD-L1 Ab # 31
# B4: Ab-42 (antibody, V domains shown)
# VH: QVQLVQSGAEVKKPGSSVKVSCKASGGTFSSYAISWVRQAPGQGLEWMGGIIPIFGTANYAQKFQGRVTITADKSTSTAYMELSSLRSEDTAVYYCARGRQMFGAGIDFWGPGTLVTVSS
# VL: NFMLTQPHSVSESPGKTVTISCTRSSGSIDSNYVQWYQQRPGSAPTTVIYEDNQRPSGVPDRFSGSIDSSSNSASLTISGLKTEDEADYYCQSYDSNNRHVIFGGGTKLTVL
# notes: also called huPD-L1 Ab # 42; mAb42
# B5: Ab-50 (antibody, V domains shown)
# VH: QVQLVQSGGEVKKPGASVKVSCKASGYTLSSHGITWVRQAPGQGLEWMGWISAHNGHASNAQKVEDRVTMTTDTSTNTAYMELRSLTADDTAVYYCARVHAALYYGMDVWGQGTLVTVSS
# VL: QSVLTQPPSVSVAPGQTARITCGGNNIGSKGVHWYQQKPGQAPVLVVYDDSDRPSGIPERFSGSNSGNTATLTISRVEAGDEADYYCQVWDSSSDHWVFGGGTKLTVL
# notes: also called huPD-L1 Ab # 50
# B6: Ab-46 phage-scFv (scFv, V domains shown, not shown: large carriers; small tags and cut ends)
# VH: EVQLVESGAEVKKPGSSVKVSCKVSGGTFGTYALNWVRQAPGQGLEWMGRIVPLIGLVNYAHNFEGRISITADKSTGTAYMELSNLRSDDTAVYYCAREVYGGNSDYWGQGTLVTVSS
# VL: NFMLTQPHSVSESPGKTVTISCTRSSGNIGTNYVQWYQQRPGSAPVALIYEDYRRPSGVPDRFSGSIDSSSNSASLIISGLKPEDEADYYCQSYHSSGWEFGGGTKLTVL
# notes: also called Ab-46 scFv-phage
# B7: Ab-52 (antibody, V domains shown)
# VH: QVQLQESGGGVVQPGRSLRLSCSASGFTFSRHGMHWVRQAPGKGLEWVAVISHDGSVKYYADSMKGRFSISRDNSNNTLYLQMDSLRADDTAVYYCARGLSYQVSGWFDPWGQGTLVTVSS
# VL: NFMLTQPHSVSESPGKTVTISCTRSSGSIASNYVQWYQQRPGSAPTTVIYEDNQRPSGVPDRFSGSIDSSSNSASLTISGLKTEDEADYYCQSYDSTTPSVFGGGTKLTVL
# notes: also called huPD-L1 Ab # 52
# B8: Ab-56 phage-scFv (scFv, V domains shown, not shown: large carriers; small tags and cut ends)
# VH: EVQLVESGAEVMNPGSSVRVSCRGSGGDFSTYAFSWVRQAPGQGLEWMGRIIPILGIANYAQKFQGRVTITADKSTSTAYMELSSLRSDDTAVYYCARDGYGSDPVLWGQGTLVTVSS
# VL: B7 VL with E12G, I20L, S21P, N32H, Q54K, T77S, T97S, T98N, P99R, S100W
# notes: also called Ab-56 scFv-phage
# B9: Ab-14 (antibody, V domains shown)
# VH: QVQLVQSGAEVKKPGASVKVSCKASGYTFTSYGISWVRQAPGQGLEWMGWISAYNGNTNYAQKLQGRVTMTTDTSTSTAYMELRSLRSDDTAVYYCARALPSGTILVGGWFDPWGQGTLVTVSS
# VL: B7 VL with S28N, T97S, T98N, P99L, S100W
# notes: also called huPD-L1 Ab # 14
# How the values were obtained:
# [1] = target: T1, human PD-L1 (hPD-L1) expressed on transfected 300.19 cells (human, UniProt Q9NZQ7 19-290); assay: FACS, hPD-L1 300.19 cells, assay 1, Ab 1 ug/ml
# T1 construct: whole, on cells; also called B7H1
# T1 sequence (Q9NZQ7 19-290): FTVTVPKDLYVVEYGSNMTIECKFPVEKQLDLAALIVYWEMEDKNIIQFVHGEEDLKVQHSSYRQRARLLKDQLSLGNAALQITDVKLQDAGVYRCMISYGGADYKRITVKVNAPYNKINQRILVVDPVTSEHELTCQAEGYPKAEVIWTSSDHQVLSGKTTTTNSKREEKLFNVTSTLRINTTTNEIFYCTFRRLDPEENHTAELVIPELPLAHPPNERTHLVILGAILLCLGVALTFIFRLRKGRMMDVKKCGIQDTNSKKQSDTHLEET
# Procedure: (§1) Binding analysis of huPD-L1 antibodies were performed using PD-L1-expressing cells. […] GF1538 and GF1757 antibodies were used as controls: GF1538 is a humanized Ab against hPD-L1, and GF1757 is a humanized Ab against hPD-L2. The secondary antibody utilized was PE-goat anti-human IgG. All values represent mean fluorescence intensity (GMFI), as detected by FACs analysis.
# [2] = target: T1, human PD-L1 (hPD-L1) expressed on …; assay: FACS, hPD-L1 300.19 cells, assay 2, Ab 1 ug/ml
# Procedure: as §1
# [3] = target: T1, human PD-L1 (hPD-L1) expressed on …; assay: FACS, hPD-L1 300.19 cells, assay 1, Ab 0.1 ug/ml
# Procedure: as §1
# [4] = target: T1, human PD-L1 (hPD-L1) expressed on …; assay: FACS, hPD-L1 300.19 cells, assay 2, Ab 0.1 ug/ml
# Procedure: as §1
# [5] = target: T1, human PD-L1 (hPD-L1) expressed on …; assay: FACS, hPD-L1 300.19 cells, assay 1, Ab 0.01 ug/ml
# Procedure: as §1
# [6] = target: T1, human PD-L1 (hPD-L1) expressed on …; assay: FACS, hPD-L1 300.19 cells, assay 2, Ab 0.01 ug/ml
# Procedure: as §1
# [7] = target: T1, human PD-L1 (hPD-L1) expressed on …; assay: FACS, hPD-L1 300.19 cells, assay 1, Ab approx 10 ug/ml
# Procedure: as §1
# [8] = target: T1, human PD-L1 (hPD-L1) expressed on …; assay: FACS, hPD-L1 300.19 cells, assay 2, Ab approx 10 ug/ml
# Procedure: as §1
# [9] = target: T1, human PD-L1 (hPD-L1) expressed on …; assay: competition FACS, hPD-L1 300.19 cells, signal = bound hPD-1-mIgG2a, Ab 1 ug/ml
# Procedure: (§2) A competitive FACS analysis was performed to characterize the inhibition of hPD1 binding to hPD-L1 by the soluble huPD-L1 antibodies of the present invention. […] In this assay, 50,000 cells expressing hPD-L1 were pre-incubated with the huPD-L1 or control antibodies for 30 minutes at the following concentrations: 10 μg/ml, 1 μg/ml, 0.1 μg/ml and 0.01 μg/ml. […] After 30 minutes of incubation, the cells were washed twice and then analyzed by FACS. MFI values from Table 20 are used to generate a percent inhibition of hPD1 binding with hPD-L1+ cells for FIG. 4.
# [10] = target: T1, human PD-L1 (hPD-L1) expressed on …; assay: competition FACS, hPD-L1 300.19 cells, signal = bound hPD-1-mIgG2a, Ab 0.1 ug/ml
# Procedure: as §2
# [11] = target: T1, human PD-L1 (hPD-L1) expressed on …; assay: competition FACS, hPD-L1 300.19 cells, signal = bound hPD-1-mIgG2a, Ab 0.01 ug/ml
# Procedure: as §2
# [12] = target: T1, human PD-L1 (hPD-L1) expressed on …; assay: competition FACS, hPD-L1 300.19 cells, signal = bound hPD-1-mIgG2a, Ab approx 10 ug/ml
# Procedure: as §2
# [13] = target: T2, full length PD-L1 in the form of paramagnetic proteoliposomes (PMPL) (human, UniProt Q9NZQ7 19-290); assay: phage display panning on PD-L1 proteoliposomes
# T2 construct: whole, on cells; Full length protein in proteoliposomes, not on cells; the form 'whole' is meant; also called proteoliposome-coupled-PD-L1
# T2 sequence (Q9NZQ7 19-290): as above
Binder,Cells PE-A Mean [1] [MFI],Cells PE-A Mean [2] [MFI],Cells PE-A Mean [3] [MFI],Cells PE-A Mean [4] [MFI],Cells PE-A Mean [5] [MFI],Cells PE-A Mean [6] [MFI],Cells PE-A Mean [7] [MFI],Cells PE-A Mean [8] [MFI],Cells PE-A Mean (bound hPD-1-mIgG2a) [9] [MFI],Cells PE-A Mean (bound hPD-1-mIgG2a) [10] [MFI],Cells PE-A Mean (bound hPD-1-mIgG2a) [11] [MFI],Cells PE-A Mean (bound hPD-1-mIgG2a) [12] [MFI],binding result [13]
B1,9650,26500,2300,8910,543,1760,24400,42400,3620,9140,12900,150,–
B2,37500,61200,17500,39100,3510,7720,47600,67300,661,4780,11600,244,–
B3,44200,71000,12500,37700,2830,6830,53800,76400,623,7930,11900,157,–
B4,40900,72100,14900,49400,2080,11600,53600,76800,142,3140,11800,139,–
B5,42100,63400,15100,28700,2690,5200,49400,69600,156,2800,12500,207,–
B6,–,–,–,–,–,–,–,–,–,–,–,–,binds
B7,21400,34900,5610,14700,1070,2690,28400,37200,2070,6750,11900,380,–
B8,–,–,–,–,–,–,–,–,–,–,–,–,binds
B9,23300,53200,8100,17700,1650,3700,41500,77900,12000,14900,15800,696,–
